# Measured values reported in article PMC3793860, “A role for the vesicle-associated tubulin binding protein ARL6 (BBS3) in flagellum extension in Trypanosoma brucei” (Biochimica et Biophysica Acta, 2012).
# Biological target: freshly polymerised microtubules (Microtubule Binding Protein Spin-Down Assay kit, Cytoskeleton, Inc.)
# Test: co-sedimentation; microtubule spin-down: 2.5 μg protein, 30 min at room temperature with freshly polymerised microtubules (equivalent of 2 μM tubulin dimer), 20 μM Taxol, 10 mM MgCl2 and 4 mM GDP or GTP; 100,000 g for 40 min through a 60% glycerol cushion; supernatant and pellet on Coomassie gel
# freshly polymerised microtubules (Microtubule Binding Protein Spin-Down Assay kit, Cytoskeleton, Inc.), sequence (P68363 whole entry, chain 1 of 2): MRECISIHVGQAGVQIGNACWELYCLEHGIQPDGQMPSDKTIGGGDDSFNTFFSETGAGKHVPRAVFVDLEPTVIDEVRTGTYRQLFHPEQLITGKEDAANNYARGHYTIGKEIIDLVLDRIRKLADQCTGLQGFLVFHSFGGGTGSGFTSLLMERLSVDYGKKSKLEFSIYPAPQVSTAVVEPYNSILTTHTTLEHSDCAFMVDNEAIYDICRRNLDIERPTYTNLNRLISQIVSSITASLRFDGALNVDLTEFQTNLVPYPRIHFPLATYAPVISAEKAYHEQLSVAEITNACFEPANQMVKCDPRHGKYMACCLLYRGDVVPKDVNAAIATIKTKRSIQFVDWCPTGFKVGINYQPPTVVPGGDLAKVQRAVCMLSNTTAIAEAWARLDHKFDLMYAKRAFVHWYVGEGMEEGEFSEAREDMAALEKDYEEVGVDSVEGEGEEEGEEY
# freshly polymerised microtubules (Microtubule Binding Protein Spin-Down Assay kit, Cytoskeleton, Inc.), sequence (A8K068 whole entry, chain 2 of 2, further chain): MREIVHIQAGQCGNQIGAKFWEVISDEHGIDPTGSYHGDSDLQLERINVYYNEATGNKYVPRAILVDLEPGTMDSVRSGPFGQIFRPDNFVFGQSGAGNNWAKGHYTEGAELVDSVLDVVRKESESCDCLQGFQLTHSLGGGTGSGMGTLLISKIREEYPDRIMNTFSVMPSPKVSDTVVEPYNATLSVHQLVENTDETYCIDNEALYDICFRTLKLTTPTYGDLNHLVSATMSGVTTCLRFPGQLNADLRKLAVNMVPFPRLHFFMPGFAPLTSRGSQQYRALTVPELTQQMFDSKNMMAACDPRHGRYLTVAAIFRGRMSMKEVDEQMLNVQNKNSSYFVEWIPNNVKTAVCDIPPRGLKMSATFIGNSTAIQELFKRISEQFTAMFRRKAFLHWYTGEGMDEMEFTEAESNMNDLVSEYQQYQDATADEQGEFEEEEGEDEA
substance,measurement,value
N-terminal His-tagged recombinant T. brucei ARL6 (natural protein),"percent of the protein in the insoluble fraction with microtubules, with GDP",36%
same,"percent of the protein in the insoluble fraction with microtubules, with GTP",20%
